# Article PMC8646926 (Advanced Biology, 2021)
# Where two headings read alike, the source gives them in different places.
# Legend:
# [1] = molecular target: T1, SARS-CoV-2 Nsp9, wild type, purified recombinant (SARS-CoV-2, UniProt P0DTD1)
# [2] = molecular target: T1, SARS-CoV-2 Nsp9, wild type, purified …; assay: far-Western, overlay or dot blot; details: both partners purified
# [3] = molecular target: T1, SARS-CoV-2 Nsp9, wild type, purified …; assay: NMR titration; details: both partners purified
Binder,binding result [1],other results
3NSP52 (VHH) VHH: QVQLQESGGGLVQPEGSLRLSCAASGLTFDSYAIGWFRQAPGKEREFVAASIWSGDSGHYTGSVKGRFTISRDNAKNTVDLQMNSLKPEDTAVYYCAASASFLHSANYHMRAKWGYWGQGTQVTVSS,binds,
nanobody 2NSP23 (VHH) VHH: QVQLQESGGGLVQPGGSLRLSCAASGLAFSMYTMGWFRQAPGKEREFVAMIISSGDSTDYADSVKGRFTISRDNGKNTVYLQMDSLKPEDTAVYYCAAPKFRYYFSTSPGDFDSWGQGTQVTVSS,,binding result [2]: binds
2INS27 (VHH) VHH: QVQLQESGGGLVQAGGSLRLSCATSGSIFSSAVMGWYRQAPGNERELVALIGSSDTTDYSNSVKGRFTISRDNAKNTAYLRMNSLKPEDTAVYYCTAVKYGLGGFVYWGQGTQVTVSS,binds,
nanobody 2NSP90 (VHH) VHH: QVQLQESGGGLVQTGDSLRLSCAVSGRTFSTYSVGWFRQAPGKEREFVALRWSGGTTYYADSVVGRFTVSRDNAKNTVYLEMNSLKPEDTAVYYCAADRGSGSYSPTYRWDYWGQGTQVTVSS,,stoichiometry N [3]: 3 to 4
3NSP78 (VHH) VHH: QVQLQESGGGLVQAGGSLRLSCAASGRAFSSYVMGWFRQAPGKEREFVAAIHWTGAATVYVDSVKGRFAISRHNAKNTVYLEMNSLKPEDTAVYYCAADPSGSYWPPKRYDYWGQGTQVTVSS,binds,
2INS45 (VHH) VHH: QVQLQESGGGLVQAGGSLRLSCAASGFTLSSNDMGWYRQAPGKQRELVATITSGLSTNYADSVKGRFTISRDNAKNTVFLQMNSLKIEDTAVYYCEVERGWGPPRDYWGHGTQVTVSS,binds,
2INS64 (VHH) VHH: QVQLQESGGGLVQVGGSLRLSCAASGSILSINAMGWYRQAPGKQRELVAAITSGGSTNYADSVKGRFTISRDNAKNMLYLQMNSLKPEDTAVYYCHVVTGWGPLDWGQGTQVTVSS,binds,
2INS69 (VHH) VHH: QVQLQESGGGLVRAGDSLRLSCAVSGRTFSSVAMGWFRQAPGKEREFVAFISGSTGSVTYYADSVKGRFAISRDNAKNTVYLQMNSLKPEDTAVYDCAAKFTGTFNYQGLYDYWGQGTQVTVSS,binds,
